{"source": "patent US6046014", "key": {"[1]": {"target": "streptavidin-agarose (immobilized streptavidin) (Streptomyces avidinii) (UniProt P22629)", "test": "affinity chromatography on streptavidin-agarose"}, "[2]": {"target": "streptavidin-agarose (immobilized streptavidin) (Streptomyces avidinii) (UniProt P22629)", "test": "affinity chromatography: ammonium sulfate fraction passed over streptavidin-agarose"}}, "data": [{"substance": "Strep-tagged oat phytochrome A (ASPHYA-ST)", "values": [{"measurement": "binding capacity (µg ASPHYA-ST per milliliter bed volume)", "setting": "[1]", "value": 200}, {"measurement": "efficiency of binding", "setting": "[2]", "value": 86, "unit": "%"}]}]}
